Laboratory results taken from patent US20180244758A1 (MAPP BIOPHARMACEUTICAL, published 2018).
Numbering of substitutions follows the chain as printed.

T1: TAFV GP on VSV pseudotype particles (Tai Forest virus (TAFV), UniProt Q66810 33-676)
T1 sequence: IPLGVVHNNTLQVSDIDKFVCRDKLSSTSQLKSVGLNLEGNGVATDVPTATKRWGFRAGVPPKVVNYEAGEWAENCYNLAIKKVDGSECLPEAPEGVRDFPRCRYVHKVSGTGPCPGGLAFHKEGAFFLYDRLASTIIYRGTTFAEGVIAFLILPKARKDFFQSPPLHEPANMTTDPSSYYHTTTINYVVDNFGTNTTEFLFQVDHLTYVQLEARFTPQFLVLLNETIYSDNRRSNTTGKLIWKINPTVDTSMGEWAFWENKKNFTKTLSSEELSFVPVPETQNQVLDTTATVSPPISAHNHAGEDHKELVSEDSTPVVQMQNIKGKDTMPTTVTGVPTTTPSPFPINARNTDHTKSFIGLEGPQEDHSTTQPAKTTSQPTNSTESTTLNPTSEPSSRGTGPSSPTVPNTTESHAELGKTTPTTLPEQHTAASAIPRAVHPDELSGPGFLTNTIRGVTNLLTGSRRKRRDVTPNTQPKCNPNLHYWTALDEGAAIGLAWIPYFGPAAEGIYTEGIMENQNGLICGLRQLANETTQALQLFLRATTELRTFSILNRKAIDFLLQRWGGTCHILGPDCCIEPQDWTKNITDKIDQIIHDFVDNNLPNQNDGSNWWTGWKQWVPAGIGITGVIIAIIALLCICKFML

T2: GP of authentic (wild-type) EBOV (Ebola virus (EBOV), UniProt P87666 33-676)
T2 sequence: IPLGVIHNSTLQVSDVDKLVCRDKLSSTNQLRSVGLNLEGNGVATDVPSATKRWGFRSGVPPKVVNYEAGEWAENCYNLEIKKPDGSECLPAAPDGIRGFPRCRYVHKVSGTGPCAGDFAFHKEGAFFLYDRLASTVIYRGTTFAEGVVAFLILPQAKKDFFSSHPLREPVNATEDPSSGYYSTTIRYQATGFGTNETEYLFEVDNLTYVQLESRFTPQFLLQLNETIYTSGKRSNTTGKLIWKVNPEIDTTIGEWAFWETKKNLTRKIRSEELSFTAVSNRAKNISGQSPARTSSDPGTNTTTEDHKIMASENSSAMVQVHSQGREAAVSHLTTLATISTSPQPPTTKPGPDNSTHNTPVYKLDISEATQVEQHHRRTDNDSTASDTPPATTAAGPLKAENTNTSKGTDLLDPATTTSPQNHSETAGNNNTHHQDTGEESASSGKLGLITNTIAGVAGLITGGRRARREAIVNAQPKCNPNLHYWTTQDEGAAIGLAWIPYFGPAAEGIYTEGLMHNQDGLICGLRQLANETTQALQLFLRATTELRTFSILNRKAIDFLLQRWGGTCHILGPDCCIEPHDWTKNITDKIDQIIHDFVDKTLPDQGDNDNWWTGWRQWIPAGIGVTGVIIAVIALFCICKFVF

T3: GP of authentic (wild-type) SUDV (Sudan virus (SUDV), UniProt Q66814 33-676)
T3 sequence: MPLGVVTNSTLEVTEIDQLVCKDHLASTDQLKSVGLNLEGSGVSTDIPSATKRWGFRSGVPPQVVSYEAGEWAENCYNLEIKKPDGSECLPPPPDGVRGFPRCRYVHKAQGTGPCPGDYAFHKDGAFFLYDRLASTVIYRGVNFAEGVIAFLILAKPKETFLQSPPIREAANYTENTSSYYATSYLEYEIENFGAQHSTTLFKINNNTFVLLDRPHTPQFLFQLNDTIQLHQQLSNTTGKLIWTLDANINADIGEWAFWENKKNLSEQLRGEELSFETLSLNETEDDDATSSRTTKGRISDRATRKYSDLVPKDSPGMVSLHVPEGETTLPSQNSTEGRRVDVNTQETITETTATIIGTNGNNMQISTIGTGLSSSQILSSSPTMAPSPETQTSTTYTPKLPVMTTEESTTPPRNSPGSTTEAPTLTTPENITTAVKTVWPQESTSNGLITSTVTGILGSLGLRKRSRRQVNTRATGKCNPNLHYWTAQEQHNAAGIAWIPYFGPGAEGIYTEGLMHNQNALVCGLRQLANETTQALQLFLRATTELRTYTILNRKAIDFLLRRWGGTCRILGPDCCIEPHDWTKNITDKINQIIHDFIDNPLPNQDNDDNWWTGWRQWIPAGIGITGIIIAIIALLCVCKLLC

T4: EBOV GP (Ebola virus (EBOV), UniProt Q05320 33-637)
T4 sequence: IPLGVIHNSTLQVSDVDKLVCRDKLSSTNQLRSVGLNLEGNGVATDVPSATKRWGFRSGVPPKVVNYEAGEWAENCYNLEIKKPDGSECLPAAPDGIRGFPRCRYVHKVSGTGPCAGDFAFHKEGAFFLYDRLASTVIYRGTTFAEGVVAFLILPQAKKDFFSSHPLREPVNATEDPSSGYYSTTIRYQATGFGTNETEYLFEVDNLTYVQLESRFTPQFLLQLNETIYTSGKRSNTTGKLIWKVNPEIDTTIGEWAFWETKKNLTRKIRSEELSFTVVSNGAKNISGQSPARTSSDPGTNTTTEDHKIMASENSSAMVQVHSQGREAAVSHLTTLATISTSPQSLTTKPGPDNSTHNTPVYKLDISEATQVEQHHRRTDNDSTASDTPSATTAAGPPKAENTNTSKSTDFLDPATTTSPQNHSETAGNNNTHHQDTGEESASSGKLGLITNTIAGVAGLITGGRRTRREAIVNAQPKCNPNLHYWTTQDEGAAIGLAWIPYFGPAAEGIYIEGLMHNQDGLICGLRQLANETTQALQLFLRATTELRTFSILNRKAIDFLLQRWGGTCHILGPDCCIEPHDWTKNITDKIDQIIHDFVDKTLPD

B1: mAb PE-87 (antibody, V domains shown)
VH: QVQLVQSGVTLVQPGGSLRVSCAASGFTFSSYAMSWVRQAPGKGLEWVSAISGLGGSTYYADSVKGRFTISRDNSKNTLYLQMNSLRAEDTAVYYCAKDHRVWAAGYHFDYWGQGALVTVSS
VL: DIVLTQSPSTLSASVGDRVTITCRASQSISSWLAWYQQKPGEAPKLLISDASSLESGVPSRFSGSGSGTEFTLTISSLQPDDFATYYCQQYYSSPTFGGGTKVEIK
B2: mAb PE-24 (antibody, V domains shown)
VH: EVQLVESGGGLVQPGGSLRLSCAASGFTFSSYAMSWVRQAPGKGLEWVSEISGLGGSTYYADSAKGRFTISRDNSKSTLYLQMNSLRAEDTAVYYCAKDHRVWAPGYYFDHWGQGTLVTVSS
VL: B1 VL with E42K, S49Y, Y87F, Y92N, S93R
B3: mAb PE-05 (antibody, V domains shown)
VH: QVQLQESGGGLVKPGRSLRLSCTASGFTFGDYAMSWFRQAPGKGLEWVGFLRSKAYGGTAEYAASVKGRFTMSRDDSKSIAYLQMNSLKTEDTAVYFCTRDGFRGSSWGYSYYGMDVWGQGTTVTVSS
VL: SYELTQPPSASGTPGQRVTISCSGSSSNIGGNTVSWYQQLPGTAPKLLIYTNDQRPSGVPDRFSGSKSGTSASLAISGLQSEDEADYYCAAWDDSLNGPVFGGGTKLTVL
B4: mAb PE-16 (antibody, V domains shown)
VH: QVQLVQSGAEVTKPGASVKVSCKASGYTFTTYYMHWVRQAPGQGLEWVGIINPSGGITRYAQKFQGRVTLTRDTSTTTVYMELSSLRSEDTAVYYCARDRYPVLFATDYGMDVWGQGTTVTVSS
VL: DIVMTQSPATLSLSPGERATLSCRASQSVSGYLAWYQQKPGQAPRLLIYDASNRATGIPARFSGSGSGTDFTLTISSLEPEDFAVYYCQQRSIWPPGVTFGGGTKVEIK
B5: mAb PE-47 (antibody, V domains shown)
VH: EVQLVESGGGLVKPGGSLRLSCAASGFTFSNAWMSWVRQAPGEGLEWVGRIKSKTDGGTIDYAAPVKGRFTISRDDSKNTVYLQMTSLKTEDTAVYYCTTYTEDMQYFDWLLRGGETFDYWGQGTLVTVSS
VL: DIQMTQSPSSLSASVGDRVTITCRASQYISTYLNWYQQKPGKAPKLLIYAAYNLQSGVPSRFSGSGSGTDFTLTISSLQPEDFATYYCQQSYSTPGRYTFGQGTKVEIK

molecular target: T1, TAFV GP on VSV pseudotype particles; assay: cell-based or functional assay

| Binder | rVSV-GP neutralization IC50 [nM] |
| --- | --- |
| B1 | 1 |
| B2 | 1.5 |
| B3 | 0.8 |
| B4 | 4.8 |

molecular target: T2, GP of authentic (wild-type) EBOV; assay: cell-based or functional assay

| Binder | Authentic virus neutralization IC50 [nM] |
| --- | --- |
| B1 | 0.2 |
| B2 | 0.7 |
| B3 | 5.2 |
| B4 | 0.1 |

molecular target: GP of authentic (wild-type) BDBV (Bundibugyo virus (BDBV)); assay: cell-based or functional assay

| Binder | Authentic virus neutralization IC50 [nM] |
| --- | --- |
| B1 | 0.6 |
| B2 | 0.6 |
| B4 | 0.3 |

molecular target: T3, GP of authentic (wild-type) SUDV; assay: cell-based or functional assay

| Binder | Authentic virus neutralization IC50 [nM] |
| --- | --- |
| B1 | 0.2 |
| B2 | 0.2 |
| B4 | 300 |

molecular target: T4, EBOV GP; assay: not given

| Binder | Kd [nM] |
| --- | --- |
| B5 | 3.5 |
| B1 | < 0.01 |
| B2 | 1 |
| B3 | 44 |
| B4 | 0.16 |
